The target in series [1] is human ChaC2 (wild type) (human) (UniProt Q8WUX2). As to the kind of experiment: crystal structure; wild type ChaC2 crystals, hanging drop, 14% PEG 8000, 14% ethylene glycol, 100 mM HEPES pH 7.5, 22 °C; three molecules in the asymmetric unit, each in a crystallographic dimer with a molecule of a nearby asymmetric unit.
Series [2] concerns the molecule itself. Description: SEC; HiLoad 16/600 Superdex 75 pg, 20 mM Tris-HCl pH 7.1, 150 mM NaCl, 5 mM DTT, 2% glycerol, 1 mL/min, calibrated with molecular weight standards.

Values joined by “and” are separate entries in the source; they are usually repeats but may differ in a detail not shown here. Identical values can stand only once.

One may read the stoichiometry N as the number of molecules, sites or subunits per partner or assembly.

In turn, “human ChaC2 (wild type) (from UniProt Q8WUX2 1-184) (enzyme)” had a stoichiometry N in series [1] of 2.

B1: human ChaC1 (enzyme, UniProt Q9BUX1 1-222, looked up)
chain: MKQESAAPNTPPTSQSPTPSAQFPRNDGDPQALWIFGYGSLVWRPDFAYSDSRVGFVRGYSRRFWQGDTFHRGSDKMPGRVVTLLEDHEGCTWGVAYQVQGEQVSKALKYLNVREAVLGGYDTKEVTFYPQDAPDQPLKALAYVATPQNPGYLGPAPEEAIATQILACRGFSGHNLEYLLRLADFMQLCGPQAQDEHLAAIVDAVGTMLPCFCPTEQALALV
notes: human ChaC1, cDNA from the Korean Human Gene Bank, cloned into pET-21a between BamHI and XhoI; source: E. coli C41 (DE3), purified (Ni2+ HiTrap Chelating HP, HiTrap Q HP, Superdex 75 pg)
B1: the “stoichiometry N” value in series [2] is 2 and 4.

The values above are taken from publication PMC7022552, “Structural and Functional Analyses of Human ChaC2 in Glutathione Metabolism” (Biomolecules, 2019).
